The target in one experiment is ALK (Homo sapiens) (UniProt Q9UM73). Particulars: cited from earlier work.
In the next experiment the target is EphA4 (Homo sapiens) (UniProt P54764). As to conditions: cited from earlier work.
Experiment [1] deals with T1, endogenous wild-type ALK in H1299 human lung cancer cells (human (endogenous in H1299), UniProt Q9UM73 19-1620).
T1 construct: ALK receptor tyrosine kinase, wild type, endogenous in H1299 human lung cancer cells; also called WT ALK; source: endogenous, H1299 lysate; endogenous, in H1299 cells
Kind of experiment: ELISA; ALK captured from H1299 lysate on plate-bound ALK antibody (3 µg/ml); recombinant RNase1 at different concentrations in lysis buffer, overnight at 4 °C; streptavidin-HRP, TMB, OD 450 nm; Kd by GraphPad Prism. Particulars: one partner purified. In general terms: An ELISA detects its analyte on a solid surface through an enzyme-linked reagent.

As a reminder, the Kd is the equilibrium constant for the complex coming apart.

T1 sequence (Q9UM73 19-1620): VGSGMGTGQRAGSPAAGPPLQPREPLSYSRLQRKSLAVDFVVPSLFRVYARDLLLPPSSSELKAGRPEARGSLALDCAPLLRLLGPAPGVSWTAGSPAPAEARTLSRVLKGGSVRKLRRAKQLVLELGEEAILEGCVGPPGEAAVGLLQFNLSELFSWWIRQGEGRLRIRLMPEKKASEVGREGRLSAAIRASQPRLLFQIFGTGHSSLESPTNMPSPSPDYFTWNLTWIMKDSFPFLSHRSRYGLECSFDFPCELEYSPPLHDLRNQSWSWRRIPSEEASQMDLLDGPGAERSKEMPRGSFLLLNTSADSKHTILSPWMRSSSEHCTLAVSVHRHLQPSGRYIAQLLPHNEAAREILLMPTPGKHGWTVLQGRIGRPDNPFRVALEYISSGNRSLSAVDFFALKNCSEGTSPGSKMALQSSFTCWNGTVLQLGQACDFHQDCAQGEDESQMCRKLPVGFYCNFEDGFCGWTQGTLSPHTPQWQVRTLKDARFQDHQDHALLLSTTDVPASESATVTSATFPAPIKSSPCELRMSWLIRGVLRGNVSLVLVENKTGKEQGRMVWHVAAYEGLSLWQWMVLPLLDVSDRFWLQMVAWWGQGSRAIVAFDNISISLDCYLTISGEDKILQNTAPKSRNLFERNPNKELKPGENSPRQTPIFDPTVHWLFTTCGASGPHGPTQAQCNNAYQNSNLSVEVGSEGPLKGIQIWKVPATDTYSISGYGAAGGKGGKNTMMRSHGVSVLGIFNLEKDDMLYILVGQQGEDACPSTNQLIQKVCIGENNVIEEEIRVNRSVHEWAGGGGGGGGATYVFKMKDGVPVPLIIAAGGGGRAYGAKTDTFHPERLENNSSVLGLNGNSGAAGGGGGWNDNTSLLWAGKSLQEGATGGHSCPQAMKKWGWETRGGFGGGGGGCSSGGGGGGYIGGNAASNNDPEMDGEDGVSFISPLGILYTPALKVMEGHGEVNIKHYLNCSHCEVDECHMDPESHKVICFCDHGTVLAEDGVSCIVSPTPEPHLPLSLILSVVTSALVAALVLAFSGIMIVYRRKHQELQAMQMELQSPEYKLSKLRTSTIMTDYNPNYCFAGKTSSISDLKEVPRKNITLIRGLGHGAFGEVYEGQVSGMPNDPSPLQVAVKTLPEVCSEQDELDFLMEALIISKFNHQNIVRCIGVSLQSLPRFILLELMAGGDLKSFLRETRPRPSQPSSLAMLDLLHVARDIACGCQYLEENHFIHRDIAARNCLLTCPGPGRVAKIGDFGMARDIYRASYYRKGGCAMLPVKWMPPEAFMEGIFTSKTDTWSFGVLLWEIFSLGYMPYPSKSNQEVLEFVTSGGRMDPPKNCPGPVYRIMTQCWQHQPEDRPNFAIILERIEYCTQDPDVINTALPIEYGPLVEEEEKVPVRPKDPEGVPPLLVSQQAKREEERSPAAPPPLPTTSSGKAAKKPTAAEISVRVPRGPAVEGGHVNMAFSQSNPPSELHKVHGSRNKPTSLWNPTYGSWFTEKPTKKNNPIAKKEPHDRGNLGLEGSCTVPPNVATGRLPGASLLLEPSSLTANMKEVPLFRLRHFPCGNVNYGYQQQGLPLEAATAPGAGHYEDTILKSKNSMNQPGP
Chain of EphA4 (Homo sapiens) (P54764 20-547): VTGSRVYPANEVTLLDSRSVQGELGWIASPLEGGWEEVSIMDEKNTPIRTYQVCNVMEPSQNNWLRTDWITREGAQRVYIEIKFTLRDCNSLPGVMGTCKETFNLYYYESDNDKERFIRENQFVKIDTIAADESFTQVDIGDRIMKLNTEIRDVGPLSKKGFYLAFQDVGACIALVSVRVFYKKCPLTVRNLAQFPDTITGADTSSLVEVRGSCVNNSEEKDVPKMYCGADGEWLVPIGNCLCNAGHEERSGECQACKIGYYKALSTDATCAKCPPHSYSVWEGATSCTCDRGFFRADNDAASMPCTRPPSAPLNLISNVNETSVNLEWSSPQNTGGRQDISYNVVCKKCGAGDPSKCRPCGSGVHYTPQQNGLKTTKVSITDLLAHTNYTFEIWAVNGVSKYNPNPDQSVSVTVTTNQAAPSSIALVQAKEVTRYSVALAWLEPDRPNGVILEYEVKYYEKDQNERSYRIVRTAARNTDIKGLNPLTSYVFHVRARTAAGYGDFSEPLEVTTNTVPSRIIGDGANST
Chain of ALK (Homo sapiens) (Q9UM73 19-1038): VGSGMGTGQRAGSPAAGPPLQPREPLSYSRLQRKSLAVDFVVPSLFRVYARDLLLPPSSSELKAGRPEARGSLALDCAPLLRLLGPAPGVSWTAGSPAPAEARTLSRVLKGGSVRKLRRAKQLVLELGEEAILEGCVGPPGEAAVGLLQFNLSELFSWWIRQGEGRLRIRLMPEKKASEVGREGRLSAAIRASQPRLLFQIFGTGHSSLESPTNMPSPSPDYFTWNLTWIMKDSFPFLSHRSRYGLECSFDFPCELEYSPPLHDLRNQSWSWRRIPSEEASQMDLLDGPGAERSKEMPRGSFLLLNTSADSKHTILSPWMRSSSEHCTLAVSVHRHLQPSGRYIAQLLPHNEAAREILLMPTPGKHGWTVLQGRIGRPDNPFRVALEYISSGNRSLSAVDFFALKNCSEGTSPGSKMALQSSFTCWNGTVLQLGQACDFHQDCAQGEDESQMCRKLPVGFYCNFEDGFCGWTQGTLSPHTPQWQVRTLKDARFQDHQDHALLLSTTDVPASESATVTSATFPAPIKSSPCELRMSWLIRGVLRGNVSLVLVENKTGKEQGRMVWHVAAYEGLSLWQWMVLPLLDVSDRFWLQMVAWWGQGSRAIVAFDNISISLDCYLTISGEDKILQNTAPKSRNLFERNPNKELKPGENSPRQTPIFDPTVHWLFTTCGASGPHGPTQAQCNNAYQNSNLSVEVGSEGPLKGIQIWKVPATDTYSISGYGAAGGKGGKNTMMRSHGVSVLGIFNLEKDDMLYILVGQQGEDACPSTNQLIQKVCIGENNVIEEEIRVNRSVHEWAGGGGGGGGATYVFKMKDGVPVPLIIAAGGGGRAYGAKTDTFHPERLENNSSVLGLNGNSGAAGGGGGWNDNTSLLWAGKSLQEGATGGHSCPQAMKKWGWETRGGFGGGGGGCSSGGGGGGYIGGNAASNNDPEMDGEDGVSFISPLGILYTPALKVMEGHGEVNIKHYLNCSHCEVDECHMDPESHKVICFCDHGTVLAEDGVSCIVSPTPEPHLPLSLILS

In the case of ALKAL2 (from UniProt Q6UX46), the Kd with ALK (Homo sapiens) was 40 nM.
RNase1 (from UniProt P07998): the Kd in the experiment with EphA4 (Homo sapiens) is 92.4 nM.

B1: recombinantly purified 6x N-terminal His-tagged RNase1 (ligand, human, UniProt P07998 29-156, looked up)
chain: KESRAKKFQRQHMDSDSSPSSSSTYCNQMMRRRNMTQGRCKPVNTFVHEPLVDVQNVCFQEKVTCKNGQGNCYKSNSSMHITDCRLTNGSRYPNCAYRTSPKERHIIVACEGSPYVPVHFDASVEDST
notes: human secretory ribonuclease 1 (RNase1); cDNA cloned into the prokaryotic vector PSJ3 with N-terminal 6His tag; a bacterial construct is likely to lack the signal peptide (surmise); also called R1; human secretory ribonuclease 1; source: E. coli BL21, purified (HisTrap column); not shown: His6, N-terminal, kept
For B1, the Kd in experiment [1] was 43 nM.

The values are drawn from article PMC12006399, “RNase1-driven ALK-activation is an oncogenic driver and therapeutic target in non-small cell lung cancer” (Signal Transduction and Targeted Therapy, 2025).
